Assay results reported in FireProtDB (doi:10.1021/bi991296s).
Values joined by “and” are separate entries in the source; they are usually repeats but may differ in a detail not shown here. Equal entries are not always repeated.

Details: Escherichia coli (strain K12), pH 7.8, 25 °C, Urea, transition: 4, whole UniProt chain shown
[1] = SAXS, Potassium phosphate 10 mM
[2] = SEC, Potassium phosphate 100 mM

B1: Tryptophan synthase alpha chain wild type, P0A877 (protein)
chain: MERYESLFAQLKERKEGAFVPFVTLGDPGIEQSLKIIDTLIEAGADALELGIPFSDPLADGPTIQNATLRAFAAGVTPAQCFEMLALIRQKHPTIPIGLLMYANLVFNKGIDEFYAQCEKVGVDSVLVADVPVEESAPFRQAALRHNVAPIFICPPNADDDLLRQIASYGRGYTYLLSRAGVTGAENRAALPLNHLVAKLKEYNAAPPLQGFGISAPDQVKAAIDAGAAGAISGSAIVKIIEQHINEPEKMLAALKVFVQPMKAATRS
- denaturant m value (CD, Potassium phosphate 10 mM): 2.2 kcal/mol/M and 1.1 kcal/mol/M and 0.84 kcal/mol/M
- unfolding free energy (CD, Potassium phosphate 10 mM): 6 kcal/mol and 4.5 kcal/mol and 4.9 kcal/mol
- denaturant m value [1]: 2 kcal/mol/M and 0.9 kcal/mol/M
- unfolding free energy [1]: 5.3 kcal/mol and 3.1 kcal/mol
- denaturant m value [2]: 2 kcal/mol/M and 1.2 kcal/mol/M
- unfolding free energy [2]: 5.7 kcal/mol and 4.9 kcal/mol
